Assay results reported in paper PMC4769171.
Residue numbers refer to the chain shown, from its start.

Legend:
Conditions in all cases: EMSA: 10 mM Tris pH 7.5, 50 mM KCl, 2.5% glycerol, 0.05% Nonidet P-40, 1 ug poly(dI-dC), 5 fmol probe, 20 min RT; AFM buffer not in the material
[1] = target: His-SsrB (unphosphorylated);His-H-NS (Salmonella Typhimurium) (UniProt Q7CQM5+P0A1S2); test: EMSA supershift
[2] = target: T1, K179A His-SsrB K179A (UniProt Q7CQM5); test: EMSA
T1 sequence: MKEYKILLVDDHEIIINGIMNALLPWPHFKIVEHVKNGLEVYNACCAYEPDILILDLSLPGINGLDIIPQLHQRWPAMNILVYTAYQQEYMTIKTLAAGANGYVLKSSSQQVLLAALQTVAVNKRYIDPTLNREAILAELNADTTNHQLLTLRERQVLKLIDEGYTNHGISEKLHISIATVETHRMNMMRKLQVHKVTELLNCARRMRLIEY

[3] = target: T2, His-H-NS (Salmonella Typhimurium) (UniProt P0A1S2); test: EMSA
T2 sequence: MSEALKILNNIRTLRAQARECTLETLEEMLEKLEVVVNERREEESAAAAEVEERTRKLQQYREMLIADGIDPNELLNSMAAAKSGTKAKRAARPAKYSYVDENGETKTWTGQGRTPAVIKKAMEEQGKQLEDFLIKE

[4] = target: T3, His-SsrB (unphosphorylated) (UniProt Q7CQM5); test: EMSA
T3 sequence: T1 sequence with A179K

## AATATTTTTCTCTTTCTGGATAATGGGCTATTTCAACCCACAGCAGTGCAACATCTGTCAGTACTTCTGGTGCCTTTATTTTATGGGGGCAGCTGTCAGATGTGCGATTAAAAAAAGTGGAGTTTCATCA (double strand) [csgD122]
[1]
  binding: binds
[2]
  binding: no binding
[3]
  binding: binds
[4]
  binding: binds
